Assay results as given in doi:10.1101/2021.01.25.428185 (bioRxiv, 2021).
Positions count from the first letter of the chain named.

Tests used:
[1] = molecular target: T1, GST-Rab11A(CA), mouse Rab11A(Q70L), GTPγS-loaded (mouse, UniProt P62492 1-216, Q70L); test: pull-down
T1 sequence (looked up): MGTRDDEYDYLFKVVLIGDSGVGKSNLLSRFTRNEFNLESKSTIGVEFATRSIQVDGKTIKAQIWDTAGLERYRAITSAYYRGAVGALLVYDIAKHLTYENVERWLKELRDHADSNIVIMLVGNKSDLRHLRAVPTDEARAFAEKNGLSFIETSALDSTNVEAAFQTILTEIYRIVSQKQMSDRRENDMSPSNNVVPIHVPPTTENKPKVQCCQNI

[2] = molecular target: T2, GST-Rab11A(CN), mouse Rab11A(N124I), GDP-loaded (mouse, UniProt P62492 1-216, N124I); test: pull-down
T2 sequence (looked up): T1 sequence (looked up) with L70Q, N124I

binding result [1]: binds
binding result [2]: binds
B1: T7-tagged Rab11-FIP2-C (domain or fragment, mouse, UniProt G3XA57 389-512, looked up)
chain: PSAFSENRQDYFEYESTNPFTAKFRASTIMPSSSFHVNPTSSEDLRKIPDNNPFDATAGYRSLTYEEVLQELVKHKELLRRKDTHIRELEDYIDNLLVRVMEETPSILRVPYEPSRKAGKFTNS
